Among the data in paper PMC6889914, “Identifying dynamic, partially occupied residues using anomalous scattering” (Acta Crystallographica. Section D, Structural Biology, 2019) are binding result, Ka and Kd values, retold here.

Where no end group is shown, it is not given here. [ ]: non-standard residue; d: D form. Phe(4-I) = N[C@@H](Cc1ccc(I)cc1)C(=O)O

Assay [1] addresses T1, Spy H96L (UniProt P77754 24-161, H96L).
T1 construct: also called Super Spy chaperone mutant Spy H96L
T1 sequence (looked up): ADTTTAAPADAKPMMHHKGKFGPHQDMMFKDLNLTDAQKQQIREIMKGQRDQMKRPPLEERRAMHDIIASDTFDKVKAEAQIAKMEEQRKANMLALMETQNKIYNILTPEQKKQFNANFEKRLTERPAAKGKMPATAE
The assay is described as follows: ITC; MicroCal iTC200; titration of Spy H96L (1.25 mM) with the Im7 6–26 peptides (0.11 µM wild type, 0.055 µM pI-Phe peptides); 10°C; 40 mM HEPES–NaOH pH 7.5, 100 mM NaCl; 2 µl injections at 180 s; one-site model. To be noted: both partners purified. In general terms: Isothermal titration calorimetry measures the heat released or taken up as one component is titrated into another.

For assay [2], the target named is T2, Spy H96L (UniProt P77754 24-161, H96L).
T2 sequence: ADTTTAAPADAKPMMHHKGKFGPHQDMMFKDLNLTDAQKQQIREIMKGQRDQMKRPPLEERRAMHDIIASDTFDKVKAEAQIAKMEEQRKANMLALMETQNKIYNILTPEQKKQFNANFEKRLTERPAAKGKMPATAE
The assay is described as follows: ITC.

As to SISDYTEAEFVQL[Phe(4-I)]KEIEKEN [Im7 6–26 peptide L19pI-Phe], the binding result with Spy H96L [1] is reported as “binds”. This molecule also returned a Ka in the assay with Spy H96L [2] of 219000 M⁻¹.

B1: Im7 6–26 peptide (wild type) (peptide)
peptide: SISDYTEAEFVQLLKEIEKEN
notes: also called wild-type Im7 6–26 peptide; Im7 peptide
For B1, binding with Spy H96L [1] was put at a Kd of 7.8 ± 0.6 µM. In the assay with Spy H96L [2], this molecule registered a Ka of 102000 M⁻¹.

B2: Im7 6–26 peptide K20pI-Phe (peptide)
peptide: SISDYTEAEFVQLLFEIEKEN
notes: also called L20pI-Phe (as misprinted in places)
As to B2, the binding result with Spy H96L [1] is on record as “binds”. In the assay with Spy H96L [2], the Ka is 218000 M⁻¹.
Consider SISDYTEAEFVQ[Phe(4-I)]LKEIEKEN [Im7 6–26 peptide L18pI-Phe], for which the binding result with Spy H96L [1] is reported as “binds”. The same molecule showed a Ka in the assay with Spy H96L [2] of 1.59e+06 M⁻¹.
